Data as given in the Immune Epitope Database (IEDB).
One block for each sequence: values may come before it.

How the values were obtained:
HLA-A*02:01 [1] = assay: IEDB peptide-MHC binding, purified MHC/direct/fluorescence; filed as Kd, often an IC50 or EC50 that approximates it; ≥ and ≤ were set here for values at or beyond the usual limits of such assays
HLA-A*03:01 = assay: as above
HLA-A*24:03 = assay: as above
HLA-A*26:01 = assay: as above
HLA-A*30:01 = assay: as above
HLA-A*69:01 = assay: as above
HLA-B*07:02 = assay: as above
HLA-B*08:01 [2] = assay: as above
HLA-B*15:01 = assay: as above
HLA-B*27:05 = assay: as above
HLA-B*40:01 = assay: as above
HLA-B*44:02 = assay: as above
HLA-B*58:01 = assay: as above
HLA-A*01:01 = assay: as above; conditions: source organism: Salmonella enterica
HLA-A*11:01 = assay: as above; conditions: source organism: Escherichia coli
HLA-A*31:01 = assay: as above; conditions: source organism: Escherichia coli
HLA-A*23:01 = assay: IEDB peptide-MHC binding, purified MHC/competitive/fluorescence; filed as Kd, often an IC50 or EC50 that approximates it; ≥ and ≤ were set here for values at or beyond the usual limits of such assays; conditions: source organism: Paramagnetospirillum magnetotacticum MS-1
HLA-A*02:01 [3] = assay: IEDB peptide-MHC binding, purified MHC/competitive/radioactivity; ≥ and ≤ were set here for values at or beyond the usual limits of such assays
HLA-B*08:01 [4] = assay: IEDB peptide-MHC binding, purified MHC/competitive/fluorescence; filed as Kd, often an IC50 or EC50 that approximates it; ≥ and ≤ were set here for values at or beyond the usual limits of such assays; conditions: source organism: Escherichia coli 536
HLA-B*15:42 = assay: as above; conditions: source organism: Escherichia coli 536
HLA-B*35:01 = assay: as above
HLA-B*45:06 = assay: as above; conditions: source organism: Escherichia coli 536
HLA-B*51:01 = assay: as above; conditions: source organism: Escherichia coli 536
HLA-B*83:01 = assay: as above; conditions: source organism: Escherichia coli 536
HLA-B*57:01 = assay: IEDB peptide-MHC binding, purified MHC/direct/fluorescence; filed as Kd, often an IC50 or EC50 that approximates it; ≥ and ≤ were set here for values at or beyond the usual limits of such assays; conditions: source organism: West Nile virus
[5] = source organism: Yersinia pestis Nepal516
[6] = source organism: Yersinia pestis
[7] = source organism: Escherichia coli
[8] = source organism: Salmonella enterica

Kd (HLA-A*23:01): 0.0017 µM
Sequence: FFIQTDAAI

IC50 (HLA-A*02:01 [3]; source organism: Homo sapiens): 0.5 µM
Sequence: GLGQVPLIV

IC50 (HLA-A*02:01 [3]; source organism: Homo sapiens): 0.5 µM
Sequence: LLDGTATLRL

Continued, sequence first:

Sequence: AFASLQDML
Kd (HLA-A*02:01 [1]; [5]): ≥ 20 µM
Kd (HLA-A*03:01; [6]): ≥ 20 µM
Kd (HLA-A*24:03; [6]): 1.28 µM
Kd (HLA-A*26:01; [5]): ≥ 20 µM
Kd (HLA-A*30:01; [6]): ≥ 20 µM
Kd (HLA-A*69:01; [5]): ≥ 20 µM
Kd (HLA-B*07:02; [5]): ≥ 20 µM
Kd (HLA-B*08:01 [2]; [5]): ≥ 20 µM
Kd (HLA-B*15:01; [5]): ≥ 20 µM
Kd (HLA-B*27:05; [5]): ≥ 20 µM
Kd (HLA-B*40:01; [5]): ≥ 20 µM
Kd (HLA-B*44:02; [5]): ≥ 20 µM
Kd (HLA-B*58:01; [5]): ≥ 20 µM

Sequence: ALMRWRHPR
Kd (HLA-A*01:01): ≥ 20 µM
Kd (HLA-A*02:01 [1]; [7]): 9.62 µM
Kd (HLA-A*03:01; [7]): 0.0994 µM
Kd (HLA-A*11:01): 0.00936 µM
Kd (HLA-A*24:03; [8]): ≥ 20 µM
Kd (HLA-A*26:01; [8]): ≥ 20 µM
Kd (HLA-A*30:01; [7]): 0.00461 µM
Kd (HLA-A*31:01): 0.00544 µM
Kd (HLA-A*69:01; [8]): ≥ 20 µM
Kd (HLA-B*07:02; [8]): ≥ 20 µM
Kd (HLA-B*08:01 [2]; [8]): ≥ 20 µM
Kd (HLA-B*15:01; [8]): ≥ 20 µM
Kd (HLA-B*27:05; [7]): 0.237 µM
Kd (HLA-B*40:01; [8]): ≥ 20 µM
Kd (HLA-B*44:02; [8]): ≥ 20 µM
Kd (HLA-B*58:01; [8]): ≥ 20 µM

Sequence: GLSRYVARLS
IC50 (HLA-A*02:01 [3]; source organism: Hepatitis B virus): 0.877 µM

Sequence: HPASRLFPF
Kd (HLA-B*08:01 [4]): 0.0434 µM
Kd (HLA-B*15:42): ≥ 5 µM
Kd (HLA-B*35:01; source organism: Escherichia coli 536): 0.0002 µM
Kd (HLA-B*45:06): ≥ 5 µM
Kd (HLA-B*51:01): ≥ 20 µM
Kd (HLA-B*83:01): 0.0534 µM

Sequence: LAALGDTAW
Kd (HLA-B*57:01): 6.18 µM
Kd (HLA-B*35:01; source organism: Japanese encephalitis virus): 0.0892 µM
